Data reported in the supplement of paper PMC11316812.
± gives the standard deviation of the averaged measurements.

What was measured:
[1] = tested on: MCF7; assay: percentage of EdU-negative (G0-arrested) nuclei per well, 72 h; higher = more G0 arrest; conditions: reference: sequence is the full UniProt precursor, the tested protein was the secreted form or ectodomain
[2] = tested on: hTERT-HMEC; assay: as above; conditions: reference: sequence is the full UniProt precursor, the tested protein was the secreted form or ectodomain
[3] = protein concentration 0.01725 µM
[4] = protein concentration 0.1725 µM
[5] = protein concentration 0.0225 µM
[6] = protein concentration 0.0308571 µM
[7] = protein concentration 0.308571 µM
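Further: secreted proteins added to cultured cells, EdU pulse at the end, nuclei found by Hoechst imaging, EdU status from nuclear versus surrounding ring intensity ratio, PBS as neutral control.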

MGAASGRRGPGLLLPLPLLLLLPPQPALALDPGLQPGNFSADEAGAQLFAQSYNSSAEQVLFQSVAASWAHDTNITAENARRQEEAALLSQEFAEAWGQKAKELYEPIWQNFTDPQLRRIIGAVRTLGSANLPLAKRQQYNALLSNMSRIYSTAKVCLPNKTATCWSLDPDLTNILASSRSYAMLLFAWEGWHNAAGIPLKPLYEDFTALSNEAYKQDGFTDTGAYWRSWYNSPTFEDDLEHLYQQLEPLYLNLHAFVRRALHRRYGDRYINLRGPIPAHLLGDMWAQSWENIYDMVVPFPDKPNLDVTSTMLQQGWNATHMFRVAEEFFTSLELSPMPPEFWEGSMLEKPADGREVVCHASAWDFYNRKDFRIKQCTRVTMDQLSTVHHEMGHIQYYLQYKDLPVSLRRGANPGFHEAIGDVLALSVSTPEHLHKIGLLDRVTNDTESDINYLLKMALEKIAFLPFGYLVDQWRWGVFSGRTPPSRYNFDWWYLRTKYQGICPPVTRNETHFDAGAKFHVPNVTPYIRYFVSFVLQFQFHEALCKEAGYEGPLHQCDIYRSTKAGAKLRKVLQAGSSRPWQEVLKDMVGLDALDAQPLLKYFQPVTQWLQEQNQQNGEVLGWPEYQWHPPLPDNYPEGIDLVTDEAEASKFVEEYDRTSQVVWNEYAEANWNYNTNITTETSKILLQKNMQIANHTLKYGTQARKFDVNQLQNTTIKRIIKKVQDLERAALPAQELEEYNKILLDMETTYSVATVCHPNGSCLQLEPDLTNVMATSRKYEDLLWAWEGWRDKAGRAILQFYPKYVELINQAARLNGYVDAGDSWRSMYETPSLEQDLERLFQELQPLYLNLHAYVRRALHRHYGAQHINLEGPIPAHLLGNMWAQTWSNIYDLVVPFPSAPSMDTTEAMLKQGWTPRRMFKEADDFFTSLGLLPVPPEFWNKSMLEKPTDGREVVCHASAWDFYNGKDFRIKQCTTVNLEDLVVAHHEMGHIQYFMQYKDLPVALREGANPGFHEAIGDVLALSVSTPKHLHSLNLLSSEGGSDEHDINFLMKMALDKIAFIPFSYLVDQWRWRVFDGSITKENYNQEWWSLRLKYQGLCPPVPRTQGDFDPGAKFHIPSSVPYIRYFVSFIIQFQFHEALCQAAGHTGPLHKCDIYQSKEAGQRLATAMKLGFSRPWPEAMQLITGQPNMSASAMLSYFKPLLDWLRTENELHGEKLGWPQYNWTPNSARSEGPLPDSGRVSFLGLDLDAQQARVGQWLLLFLGIALLVATLGLSQRLFSIRHRSLHRHSHGPQFGSEVELRHS
percentage of EdU-negative [1, 3]: 27.2 ± 0.68% | percentage of EdU-negative [1, 4]: 28.2 ± 4.2% | percentage of EdU-negative [2, 3]: 4.7 ± 0.63% | percentage of EdU-negative [2, 4]: 5.68 ± 0.65%

MLPPPRPAAALALPVLLLLLVVLTPPPTGARPSPGPDYLRRGWMRLLAEGEGCAPCRPEECAAPRGCLAGRVRDACGCCWECANLEGQLCDLDPSAHFYGHCGEQLECRLDTGGDLSRGEVPEPLCACRSQSPLCGSDGHTYSQICRLQEAARARPDANLTVAHPGPCESGPQIVSHPYDTWNVTGQDVIFGCEVFAYPMASIEWRKDGLDIQLPGDDPHISVQFRGGPQRFEVTGWLQIQAVRPSDEGTYRCLGRNALGQVEAPASLTVLTPDQLNSTGIPQLRSLNLVPEEEAESEENDDYY [Q96I82]
percentage of EdU-negative [1, 5]: 25.7 ± 0.96% | percentage of EdU-negative ([1]; protein concentration 0.225 µM): 28.1 ± 2.9% | percentage of EdU-negative [2, 5]: 5.43 ± 0.24% | percentage of EdU-negative ([2]; protein concentration 0.225 µM): 5.18 ± 0.4%

MARLGNCSLTWAALIILLLPGSLEECGHISVSAPIVHLGDPITASCIIKQNCSHLDPEPQILWRLGAELQPGGRQQRLSDGTQESIITLPHLNHTQAFLSCCLNWGNSLQILDQVELRAGYPPAIPHNLSCLMNLTTSSLICQWEPGPETHLPTSFTLKSFKSRGNCQTQGDSILDCVPKDGQSHCCIPRKHLLLYQNMGIWVQAENALGTSMSPQLCLDPMDVVKLEPPMLRTMDPSPEAAPPQAGCLQLCWEPWQPGLHINQKCELRHKPQRGEASWALVGPLPLEALQYELCGLLPATAYTLQIRCIRWPLPGHWSDWSPSLELRTTERAPTVRLDTWWRQRQLDPRTVQLFWKPVPLEEDSGRIQGYVVSWRPSGQAGAILPLCNTTELSCTFHLPSEAQEVALVAYNSAGTSRPTPVVFSESRGPALTRLHAMARDPHSLWVGWEPPNPWPQGYVIEWGLGPPSASNSNKTWRMEQNGRATGFLLKENIRPFQLYEIIVTPLYQDTMGPSQHVYAYSQEMAPSHAPELHLKHIGKTWAQLEWVPEPPELGKSPLTHYTIFWTNAQNQSFSAILNASSRGFVLHGLEPASLYHIHLMAASQAGATNSTVLTLMTLTPEGSELHIILGLFGLLLLLTCLCGTAWLCCSPNRKNPLWPSVPDPAHSSLGSWVPTIMEEDAFQLPGLGTPPITKLTVLEEDEKKPVPWESHNSSETCGLPTLVQTYVLQGDPRAVSTQPQSQSGTSDQVLYGQLLGSPTSPGPGHYLRCDSTQPLLAGLTPSPKSYENLWFQASPLGTLVTPAPSQEDDCVFGPLLNFPLLQGIRVHGMEALGSF
percentage of EdU-negative [1, 6]: 27.8 ± 0.38% | percentage of EdU-negative [1, 7]: 29.5 ± 3% | percentage of EdU-negative [2, 6]: 5.21 ± 0.22% | percentage of EdU-negative [2, 7]: 10.7 ± 1.1%

MARERPPGRGCGVLRRCLLGAVLLFGLRLCAELRRAGPGSPTRSAPPGPAWRPPGPHLPPAPGQPRGASRRQVTYVRSGRRAPPGGGGSGTPEPGCCAPRGRPRRKGPRWHIDLQPWAGSAQSLDEEAWRFLRYISTTQIACNHMNTDSLATDSSPTHKPWSVCLDDRFNLAHQIRNKQCRLYSLGLGSDDTHFEVSMANNGCEVHRFDPSVKSAHILESQHLWYHRLSIDWRDPHPAVAAQKPHSNTRKLGSILNEFGHHKIDVLKADLESAEWKVLENLILEDVLEQIGQLIFEIHLHWPGFEVSGSDSSVVRFWYSLLKELEQKDFRLFHSYKDLSKPQLFLKKDIFNASSCYTLSWVNTRWK [Q5JXM2]
percentage of EdU-negative ([1]; protein concentration 0.017 µM): 26.3 ± 1.3% | percentage of EdU-negative ([1]; protein concentration 0.17 µM): 28.6 ± 1.7% | percentage of EdU-negative ([2]; protein concentration 0.017 µM): 4.87 ± 0.35% | percentage of EdU-negative ([2]; protein concentration 0.17 µM): 10.9 ± 1.9%

MILIPRMLLVLFLLLPILSSAKAQVNPAICRYPLGMSGGQIPDEDITASSQWSESTAAKYGRLDSEEGDGAWCPEIPVEPDDLKEFLQIDLHTLHFITLVGTQGRHAGGHGIEFAPMYKINYSRDGTRWISWRNRHGKQVLDGNSNPYDIFLKDLEPPIVARFVRFIPVTDHSMNVCMRVELYGCVWLDGLVSYNAPAGQQFVLPGGSIIYLNDSVYDGAVGYSMTEGLGQLTDGVSGLDDFTQTHEYHVWPGYDYVGWRNESATNGYIEIMFEFDRIRNFTTMKVHCNNMFAKGVKIFKEVQCYFRSEASEWEPNAISFPLVLDDVNPSARFVTVPLHHRMASAIKCQYHFADTWMMFSEITFQSDAAMYNNSEALPTSPMAPTTYDPMLKVDDSNTRILIGCLVAIIFILLAIIVIILWRQFWQKMLEKASRRMLDDEMTVSLSLPSDSSMFNNNRSSSPSEQGSNSTYDRIFPLRPDYQEPSRLIRKLPEFAPGEEESGCSGVVKPVQPSGPEGVPHYAEADIVNLQGVTGGNTYSVPAVTMDLLSGKDVAVEEFPRKLLTFKEKLGEGQFGEVHLCEVEGMEKFKDKDFALDVSANQPVLVAVKMLRADANKNARNDFLKEIKIMSRLKDPNIIHLLAVCITDDPLCMITEYMENGDLNQFLSRHEPPNSSSSDVRTVSYTNLKFMATQIASGMKYLSSLNFVHRDLATRNCLVGKNYTIKIADFGMSRNLYSGDYYRIQGRAVLPIRWMSWESILLGKFTTASDVWAFGVTLWETFTFCQEQPYSQLSDEQVIENTGEFFRDQGRQTYLPQPAICPDSVYKLMLSCWRRDTKNRPSFQEIHLLLLQQGDE
percentage of EdU-negative [1, 5]: 26.1 ± 1% | percentage of EdU-negative ([1]; protein concentration 0.225 µM): 25.9 ± 1.3% | percentage of EdU-negative [2, 5]: 4.96 ± 0.44% | percentage of EdU-negative ([2]; protein concentration 0.225 µM): 5.43 ± 1.3%
